Experiments:
db/db mice [1] = assay: Blood glucose levels in db/db mice (Example 1); type: in vivo
Method: Administration of NT-4/5 and reference substances: Rosiglitazone (3 mg/kg, Sequoia Research Products Ltd., UK), a thiazolidinedione compound for the therapy of type 2 diabetes, was used in the present experiment as a reference. Phosphate buffer saline was used as vehicle in this experiment. NT-4/5 was obtained from Genentech.
(§1) A difference was considered significant for p<0.05.

db/db mice [2] = assay: Serum transaminase (AST, ALT) activity in db/db mice (Example 1)
Method: Test animals: 24 female 10-12 weeks old db/db mice (C57BL/Ks J Rj-db/db, Janvier, France), weighing in the target range of 40-50 g, were used in this study. These mice were housed in a temperature (19.5-24.5° C.) and relative humidity (45-65%) controlled room with a 12-hour light/dark cycle, with ad libitum access to filtered tap-water and irradiated pelleted laboratory chow (SAFE, France) throughout the study. Upon receipt at animal facilities, they were housed 4 per cage covered with filtered caps and at least a 5-day acclimation period was observed.
(§2) The mice were divided into three groups of 8 mice each (groups 1-3). Each group was treated with vehicle (PBS) subcutaneously (s.c.), 3 mg/kg Rosiglitazone orally (p.o.), or 20 mg/kg NT-4/5 subcutaneously (s.c.). From day 1 to day 5 (T1-T5) and then from day 8 to day 12 (T8-T12), the mice in groups 2 and 3 were dosed once daily for 5 consecutive days, with a volume of 10 ml/kg.
Collection of samples for analysis: One day before beginning the treatment (T0), non fasted db/db mice were weighed and blood samples were collected through the retro-orbital plexus (about 300 μL/mouse) under isoflurane anesthesia. Similarly, at day 5 (T5), day 12 (T12), day 19 (T19) and day 26 (T26), two hours after the last administration, blood samples were collected through the retro-orbital plexus under isoflurane anesthesia in non fasted mice.
(§3) Analysis of blood samples in db/db mice: Pre- and post dose serum levels of glucose, HbA1c, cholesterol and triglycerides, insulin, and non esterified fatty acids (NEFA), as well as aspirate amino-transferase (AST) and alanine amino-transferase activities (ALT) activities, were determined at different time points, as described further herein. At each time point and for each parameter, a mean % of the effect was calculated according to the following formula: ((T final−T initial)/T initial)*100. Statistical analysis was consistent in a one-way analysis of variance followed by multiple comparisons versus the vehicle group (Dunnett's test) on final values. In case the equal variance test fails, a Kruskall-Wallis one-way analysis of variance on ranks was conducted. A difference was considered significant for p<0.05.
Aspartate amino-transferase (AST) and alanine amino-transferase (ALT) activities were determined with an AST kit (ref. 442665, Beckman Coulter, France), an ALT kit (ref. 442620, Beckman Coulter, France), using a Synchron CX4 analyzer.

db/db mice [3] = assay: Blood insulin level by ELISA in db/db mice (Example 1); type: in vivo; set-up: blood insulin level at T5 / blood insulin level at T12 / blood insulin level at T19 / blood insulin level at T26: unit not given here
Method: as §1
The blood insulin level was determined by ELISA using an Insulin ELIT Plus kit (ref. INSRAT01-8N, Eurobio, France).

db/db mice [4] = assay: Total blood cholesterol levels in db/db mice (Example 1); type: in vivo
Method: as §1
The blood triglyceride level and the total blood cholesterol level were determined with a triglyceride assay kit (ref 445850, Beckman Coutler, France) and a total cholesterol kit (ref 467825, Beckman Coutler, France), respectively, using a Synchron CX4 analyzer.

db/db mice [5] = assay: Body weight of db/db mice (Example 1); type: in vivo; conditions: for body weight, mean / body weight expressed as % of baseline, mean: NT-4/5 20 mg/kg s.c., Rosiglitazone 3 mg/kg p.o.
Method: Throughout the experiment period (T1-T26), daily individual body weights as well as food intake per cage were measured.

db/db mice [6] = assay: HbA1c in db/db mice (Example 1); type: in vivo
Method: as §1
HbA1c levels were determined using an HbA1c kit (ref. 650262, Beckman Coulter, France) and a Synchron CX4 synchronizer. HbA1c is an indicator for blood glucose control over the last 2-3 months. The normal level of HbA1c in C57BL/6J mouse (determined by measuring 8 normal healthy C57BL/6J mice) was about 3.5%.

db/db mice [7] = assay: Blood triglyceride levels in db/db mice (Example 1); type: in vivo
Method: Test animals: 24 female 10-12 weeks old db/db mice (C57BL/Ks J Rj-db/db, Janvier, France), weighing in the target range of 40-50 g, were used in this study. […] Upon receipt at animal facilities, they were housed 4 per cage covered with filtered caps and at least a 5-day acclimation period was observed.
as §2
Collection of samples for analysis: One day before beginning the treatment (T0), non fasted db/db mice were weighed and blood samples were collected through the retro-orbital plexus (about 300 μL/mouse) under isoflurane anesthesia. Similarly, at day 5 (T5), day 12 (T12), day 19 (T19) and day 26 (T26), two hours after the last administration, blood samples were collected through the retro-orbital plexus under isoflurane anesthesia in non fasted mice. […] An aliquot of serum was used for measuring glucose levels, the remaining was frozen until use.
as §3

db/db mice [8] = assay: Serum nonesterified fatty acids (NEFA) in db/db mice (Example 1); type: in vivo
Method: as §1
Serum nonesterified fatty acids (NEFA) levels were determined by calorimetric method using a non esterified fatty acids kit (ref. FA 15, Randox, France).

[9] = day 0, before treatment, NT-4/5 20 mg/kg s.c., Rosiglitazone 3 mg/kg p.o.
[10] = day 5, NT-4/5 20 mg/kg s.c., Rosiglitazone 3 mg/kg p.o.
[11] = day 5 vs day 0, NT-4/5 20 mg/kg s.c., Rosiglitazone 3 mg/kg p.o.
[12] = day 12, NT-4/5 20 mg/kg s.c., Rosiglitazone 3 mg/kg p.o.
[13] = day 12 vs day 0, NT-4/5 20 mg/kg s.c., Rosiglitazone 3 mg/kg p.o.
[14] = day 19 vs day 0, NT-4/5 20 mg/kg s.c., Rosiglitazone 3 mg/kg p.o.
[15] = day 26 vs day 0, NT-4/5 20 mg/kg s.c., Rosiglitazone 3 mg/kg p.o.
[16] = day 19, NT-4/5 20 mg/kg s.c., Rosiglitazone 3 mg/kg p.o.
[17] = day 26, NT-4/5 20 mg/kg s.c., Rosiglitazone 3 mg/kg p.o.

B1: NT-4/5: mature human neurotrophin-4/5 (SEQ ID NO:1), obtained from Genentech or produced in E. coli (protein, listed as Homo sapiens)
chain: GVSETAPASRRGELAVCDAVSGWVTDRRTAVDLRGREVEVLGEVPAAGGSPLRQYFFETRCKADNAEEGGPGAGGGGCRGVDRRHWVSECKAKQSYVRALTADAQGRVGWRWIRIDTACVCTLLSRTGRA
- blood glucose levels T0 (db/db mice [1]; [9]): 36.95 mM
- blood glucose levels T5 (db/db mice [1]; [10]): 15.78 mM
- blood glucose % effect T5-T0 (db/db mice [1]; [11]): −56.4%
- blood glucose levels T12 (db/db mice [1]; [12]): 13.56 mM
- blood glucose % effect T12-T0 (db/db mice [1]; [13]): −62.6%
- blood glucose levels T19 (db/db mice [1]; day 19 (dosing stopped day 12), NT-4/5 20 mg/kg s.c., Rosiglitazone 3 mg/kg p.o.): 12.65 mM
- blood glucose % effect T19-T0 (db/db mice [1]; [14]): −65.2%
- blood glucose levels T26 (db/db mice [1]; day 26 (dosing stopped day 12), NT-4/5 20 mg/kg s.c., Rosiglitazone 3 mg/kg p.o.): 22.50 mM
- blood glucose % effect T26-T0 (db/db mice [1]; [15]): −37.9%
- level of blood glucose lower than that of vehicle treated mice (db/db mice [1]; throughout the rest of the study, 20 mg/kg s.c.): at least 50%
- effect on AST and/or ALT levels, or AST/ALT ratios (db/db mice [2]; 20 mg/kg s.c.): did not have significant effect
- ALT/AST ratio T0 (db/db mice [2]; [9]): 1.17
- ALT/AST ratio T5 (db/db mice [2]; [10]): 0.73
- ALT/AST ratio % effect T5-T0 (db/db mice [2]; [11]): −32.7%
- ALT/AST ratio T12 (db/db mice [2]; [12]): 0.87
- ALT/AST ratio % effect T12-T0 (db/db mice [2]; [13]): −26.6%
- ALT/AST ratio T19 (db/db mice [2]; [16]): 0.67
- ALT/AST ratio % effect T19-T0 (db/db mice [2]; [14]): −45.6%
- ALT/AST ratio T26 (db/db mice [2]; [17]): 0.99
- ALT/AST ratio % effect T26-T0 (db/db mice [2]; [15]): −17.6%
- blood insulin level at T5 (db/db mice [3]; T5): 1.84
- blood insulin level at T12 (db/db mice [3]; T12): 0.91
- blood insulin level at T19 (db/db mice [3]; T19): 7.6
- blood insulin level at T26 (db/db mice [3]; T26): 11.58
- insulin levels T0 (db/db mice [3]; [9]): 7.04 nM
- insulin levels T5 (db/db mice [3]; [10]): 1.84 nM
- insulin % effect T5-T0 (db/db mice [3]; [11]): −72.0%
- insulin levels T12 (db/db mice [3]; [12]): 0.91 nM
- insulin % effect T12-T0 (db/db mice [3]; [13]): −84.5%
- insulin levels T19 (db/db mice [3]; [16]): 7.60 nM
- insulin % effect T19-T0 (db/db mice [3]; [14]): 17.1%
- insulin levels T26 (db/db mice [3]; [17]): 11.58 nM
- insulin % effect T26-T0 (db/db mice [3]; [15]): 73.1%
- insulin level relative to normal level (db/db mice [3]; normal about 0.118±0.010 nM): not reduced to normal level
- blood cholesterol level decrease (db/db mice [4]; 20 mg/kg s.c., not statistically significant): 20-30%
- cholesterol levels T0 (db/db mice [4]; [9]): 3.42 mM
- cholesterol levels T5 (db/db mice [4]; [10]): 2.85 mM
- cholesterol % effect T5-T0 (db/db mice [4]; [11]): −16.4%
- cholesterol levels T12 (db/db mice [4]; [12]): 2.66 mM
- cholesterol % effect T12-T0 (db/db mice [4]; [13]): −23.7%
- cholesterol levels T19 (db/db mice [4]; [16]): 2.40 mM
- cholesterol % effect T19-T0 (db/db mice [4]; [14]): −31.7%
- cholesterol levels T26 (db/db mice [4]; [17]): 2.67 mM
- cholesterol % effect T26-T0 (db/db mice [4]; [15]): −23.5%
- body weight during treatment (db/db mice [5]; 20 mg/kg s.c.): gradually lost weight during the treatment
- body weight, mean (db/db mice [5]; Day 0): 41.8 g
- body weight expressed as % of baseline, mean (db/db mice [5]; Day 1): 97.8 % of baseline
- body weight, mean (db/db mice [5]; Day 1): 40.8 g
- body weight expressed as % of baseline, mean (db/db mice [5]; Day 2): 95.7 % of baseline
- body weight, mean (db/db mice [5]; Day 2): 40.0 g
- body weight expressed as % of baseline, mean (db/db mice [5]; Day 3): 94.6 % of baseline
- body weight, mean (db/db mice [5]; Day 3): 39.5 g
- body weight expressed as % of baseline, mean (db/db mice [5]; Day 4): 92.9 % of baseline
- body weight, mean (db/db mice [5]; Day 4): 38.8 g
- body weight expressed as % of baseline, mean (db/db mice [5]; Day 5): 91.6 % of baseline
- body weight, mean (db/db mice [5]; Day 5): 38.3 g
- body weight expressed as % of baseline, mean (db/db mice [5]; Day 6): 88.5 % of baseline
- body weight, mean (db/db mice [5]; Day 6): 37.0 g
- body weight expressed as % of baseline, mean (db/db mice [5]; Day 7): 87.4 % of baseline
- body weight, mean (db/db mice [5]; Day 7): 36.5 g
- body weight expressed as % of baseline, mean (db/db mice [5]; Day 8): 87.3 % of baseline
- body weight, mean (db/db mice [5]; Day 8): 36.5 g
- body weight expressed as % of baseline, mean (db/db mice [5]; Day 9): 86.5 % of baseline
- body weight, mean (db/db mice [5]; Day 9): 36.6 g
- body weight expressed as % of baseline, mean (db/db mice [5]; Day 10): 85.4 % of baseline
- body weight, mean (db/db mice [5]; Day 10): 36.1 g
- body weight expressed as % of baseline, mean (db/db mice [5]; Day 11): 84.1 % of baseline
- body weight, mean (db/db mice [5]; Day 11): 35.6 g
- body weight expressed as % of baseline, mean (db/db mice [5]; Day 12): 83.3 % of baseline
- body weight, mean (db/db mice [5]; Day 12): 35.2 g
- body weight expressed as % of baseline, mean (db/db mice [5]; Day 13): 80.8 % of baseline
- body weight, mean (db/db mice [5]; Day 13): 34.2 g
- body weight expressed as % of baseline, mean (db/db mice [5]; Day 14): 79.8 % of baseline
- body weight, mean (db/db mice [5]; Day 14): 33.7 g
- body weight expressed as % of baseline, mean (db/db mice [5]; Day 15): 80.1 % of baseline
- body weight, mean (db/db mice [5]; Day 15): 33.9 g
- body weight expressed as % of baseline, mean (db/db mice [5]; Day 18): 83.1 % of baseline
- body weight, mean (db/db mice [5]; Day 18): 35.1 g
- body weight expressed as % of baseline, mean (db/db mice [5]; Day 19): 84.4 % of baseline
- body weight, mean (db/db mice [5]; Day 19): 35.7 g
- body weight expressed as % of baseline, mean (db/db mice [5]; Day 20): 84.1 % of baseline
- body weight, mean (db/db mice [5]; Day 20): 35.6 g
- body weight expressed as % of baseline, mean (db/db mice [5]; Day 21): 85.6 % of baseline
- body weight, mean (db/db mice [5]; Day 21): 36.2 g
- body weight expressed as % of baseline, mean (db/db mice [5]; Day 22): 86.4 % of baseline
- body weight, mean (db/db mice [5]; Day 22): 36.5 g
- body weight expressed as % of baseline, mean (db/db mice [5]; Day 25): 91.7 % of baseline
- body weight, mean (db/db mice [5]; Day 25): 38.8 g
- body weight expressed as % of baseline, mean (db/db mice [5]; Day 26): 93.1 % of baseline
- body weight, mean (db/db mice [5]; Day 26): 39.4 g
- HbA1c level decrease at T26 (db/db mice [6]; T26 as compared to T0): 30.4%
- HbA1c T0 (db/db mice [6]; [9]): 5.81%
- HbA1c T12 (db/db mice [6]; [12]): 5.82%
- HbA1c % effect T12-T0 (db/db mice [6]; [13]): −0.2%
- HbA1c T26 (db/db mice [6]; [17]): 4.08%
- HbA1c % effect T26-T0 (db/db mice [6]; [15]): −30.4%
- triglycerides levels T0 (db/db mice [7]; [9]): 1.51 mM
- triglycerides levels T5 (db/db mice [7]; [10]): 0.73 mM
- triglycerides % effect T5-T0 (db/db mice [7]; [11]): −48.8%
- triglycerides levels T12 (db/db mice [7]; [12]): 0.84 mM
- triglycerides % effect T12-T0 (db/db mice [7]; [13]): −40.9%
- triglycerides levels T19 (db/db mice [7]; [16]): 1.07 mM
- triglycerides % effect T19-T0 (db/db mice [7]; [14]): −28.0%
- triglycerides levels T26 (db/db mice [7]; [17]): 1.13 mM
- triglycerides % effect T26-T0 (db/db mice [7]; [15]): −25.2%
- blood triglyceride levels relative to normal level (db/db mice [7]; normal level 1.2±0.08 mM in C57BL/6J mice): reduced to below normal level
- effect on blood level of NEFA (db/db mice [8]; 20 mg/kg s.c.): did not seem to have affected the blood level of NEFA significantly
- NEFA levels T0 (db/db mice [8]; [9]): 0.788 mM
- NEFA levels T5 (db/db mice [8]; [10]): 0.780 mM
- NEFA % effect T5-T0 (db/db mice [8]; [11]): −0.1%
- NEFA levels T12 (db/db mice [8]; [12]): 0.679 mM
- NEFA % effect T12-T0 (db/db mice [8]; [13]): −8.5%
- NEFA levels T19 (db/db mice [8]; [16]): 0.521 mM
- NEFA % effect T19-T0 (db/db mice [8]; [14]): −30.4%
- NEFA levels T26 (db/db mice [8]; [17]): 0.411 mM
- NEFA % effect T26-T0 (db/db mice [8]; [15]): −44.5%

From patent US20090203610A1, “METHODS OF TREATING OBESITY OR DIABETES USING NT-4/5” (RINAT NEUROSCIENCE CORPORATION, priority 2004, published 2009)
